Assay results reported in patent publication US11814435B2, “Therapeutic antibodies and their uses” (PFIZER INC., priority 2015, dated 2023).

T1: hBCMA (human BCMA) (Homo sapiens, UniProt Q02223)
T1 sequence (Q02223 1-184): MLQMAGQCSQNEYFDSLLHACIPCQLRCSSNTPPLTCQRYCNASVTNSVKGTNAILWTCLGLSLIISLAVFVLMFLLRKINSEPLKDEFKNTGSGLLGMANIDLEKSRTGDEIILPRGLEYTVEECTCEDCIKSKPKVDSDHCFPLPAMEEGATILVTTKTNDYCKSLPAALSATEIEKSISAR


How the values were obtained:
[1] = system: cyBCMA; experiment: Kinetics and affinity of cyBCMA/human IgG interactions by SPR (Bio-Rad Proteon XPR36); format: binding, cynomolgus; details: 37° C.
[2] = molecular target: T1, hBCMA (human BCMA); experiment: Kinetics and affinity of hBCMA/human IgG interactions by SPR (Bio-Rad Proteon XPR36); format: binding; details: huBCMA, 37° C.
Description: All experiments were performed on a Bio-Rad Proteon XPR36 surface Plasmon resonance biosensor (Bio-Rad, Hercules, Calif.). An array of anti-BCMA antibodies was prepared using an amine-coupling method on a Bio-Rad GLC Sensor Chip similar to that described in Abdiche, et al., Anal. Biochem. 411, 139-151 (2011). The analysis temperature for the immobilization was 25° C. and the running buffer was HBS-T+(10 mM HEPES, 150 mM NaCl, 0.05% Tween-20, pH 7.4). Channels were activated in the analyte (horizontal) direction by injecting a mixture of 1 mM ECD and 0.25 mM NHS for 3 minutes at a flow rate of 30 μL/min. IgGs were immobilized on the activated spots by injecting them in the ligand (vertical) direction at 20 μg/mL in 10 mM Acetate pH 4.5 buffer for 1.5 minutes at […]. The activated surfaces were blocked by injecting 1M ethanolamine, pH 8.5 in the analyte direction for 3 minutes at 30 μL/min.
The analysis temperature for the hBCMA binding analysis was 37° C. or 25° C. in a running buffer of HBS-T+, supplemented with 1 mg/mL BSA. A kinetic titration method was employed for the interaction analysis as described in Abdiche, et al. The hBCMA (human BCMA) analyte was injected in the analyte direction using a series of injections from low to high concentration. The concentrations used were 0.08 nM, 0.4 nM, 2 nM, 10 nM and 50 nM (a 5-membered series, with a 5-fold dilution factor and top concentration of 50 nM). The association time for a given analyte dilution was two minutes. Immediately after the 50 nM hBCMA injection, dissociation was monitored for 2 hours. Prior to the hBCMA analyte injections, buffer was injected 5 times using the same association and dissociation times at the hBCMA analyte cycles to prepare a buffer blank sensorgram for double-referencing purposes (double referencing as described in Myszka, J. Mol. Recognit. 12, 279-284 (1999).
The sensorgrams were double-referenced and fit to a 1:1 Langmuir with mass transport kinetic titration model in BIAevaluation Software version 4.1.1 (GE Lifesciences, Piscataway, N.J.). The sensorgrams and fits are shown in FIG. 1, and the kinetics and affinity parameters for various anti-BCMA antibodies of the present invention are shown in Tables 6A-6C.

Molecule	kd (1/s) cyBCMA @37° C. [1] [s⁻¹]	ka (1/Ms) huBCMA @ 37° C. [2] [M⁻¹ s⁻¹]	kd (1/s) huBCMA @37° C. [2] [s⁻¹]	ka (1/Ms) cyBCMA @ 37° C. [1] [M⁻¹ s⁻¹]
L3.PY/H2.QL: anti-BCMA antibody (antibody, V domains shown) VH: EVQLLESGGGLVQPGGSLRLSCAASGFTFGSYAMTWVRQAPGKGLEWVSAISGSGGNTFYADQLKGRFTISRDNSKNTLYLQMNSLRAEDTAVYYCARVSPIASGMDYWGQGTLVTVSS VL: EIVLTQSPGTLSLSPGERATLSCRASQSVSSSYLAWYQQKPGQAPRLLIYGASSRATGIPDRFSGSGSGTDFTLTISRLEPEDFAVYYCQHYPYPPSFTFGQGTKVEIK	0.0126	2.64e+06	0.00218	2.05e+06
L3.PY/H2.HA: anti-BCMA antibody (antibody, V domains shown) VH: EVQLLESGGGLVQPGGSLRLSCAASGFTFGSYAMTWVRQAPGKGLEWVSAISHAGGNTFYADSVKGRFTISRDNSKNTLYLQMNSLRAEDTAVYYCARVSPIASGMDYWGQGTLVTVSS VL: EIVLTQSPGTLSLSPGERATLSCRASQSVSSSYLAWYQQKPGQAPRLLIYGASSRATGIPDRFSGSGSGTDFTLTISRLEPEDFAVYYCQHYPYPPSFTFGQGTKVEIK	0.00755	2.43e+06	0.00147	1.99e+06
L3.PY/H2.LT: anti-BCMA antibody (antibody, V domains shown) VH: EVQLLESGGGLVQPGGSLRLSCAASGFTFGSYAMTWVRQAPGKGLEWVSAISLTGGNTFYADSVKGRFTISRDNSKNTLYLQMNSLRAEDTAVYYCARVSPIASGMDYWGQGTLVTVSS VL: EIVLTQSPGTLSLSPGERATLSCRASQSVSSSYLAWYQQKPGQAPRLLIYGASSRATGIPDRFSGSGSGTDFTLTISRLEPEDFAVYYCQHYPYPPSFTFGQGTKVEIK	0.00757	2.4e+06	0.00129	2.09e+06
L3.PY/H2.DY: anti-BCMA antibody (antibody, V domains shown) VH: EVQLLESGGGLVQPGGSLRLSCAASGFTFGSYAMTWVRQAPGKGLEWVSAIDYSGGNTFYADSVKGRFTISRDNSKNTLYLQMNSLRAEDTAVYYCARVSPIASGMDYWGQGTLVTVSS VL: EIVLTQSPGTLSLSPGERATLSCRASQSVSSSYLAWYQQKPGQAPRLLIYGASSRATGIPDRFSGSGSGTDFTLTISRLEPEDFAVYYCQHYPYPPSFTFGQGTKVEIK	0.00618	2.6e+06	0.00138	2.24e+06

More lines, main results first:

kd (1/s) cyBCMA @37° C. [1] [s⁻¹]	ka (1/Ms) huBCMA @ 37° C. [2] [M⁻¹ s⁻¹]	kd (1/s) huBCMA @37° C. [2] [s⁻¹]	Molecule	ka (1/Ms) cyBCMA @ 37° C. [1] [M⁻¹ s⁻¹]
0.00658	2.56e+06	0.00119	L3.PY/H2.QR: anti-BCMA antibody (antibody, V domains shown) VH: EVQLLESGGGLVQPGGSLRLSCAASGFTFGSYAMTWVRQAPGKGLEWVSAISGSGGNTFYADQRKGRFTISRDNSKNTLYLQMNSLRAEDTAVYYCARVSPIASGMDYWGQGTLVTVSS VL: EIVLTQSPGTLSLSPGERATLSCRASQSVSSSYLAWYQQKPGQAPRLLIYGASSRATGIPDRFSGSGSGTDFTLTISRLEPEDFAVYYCQHYPYPPSFTFGQGTKVEIK	2.18e+06
0.00621	2.58e+06	0.00156	L3.PY/H2.YQ: anti-BCMA antibody (antibody, V domains shown) VH: EVQLLESGGGLVQPGGSLRLSCAASGFTFGSYAMTWVRQAPGKGLEWVSAISYQGGNTFYADSVKGRFTISRDNSKNTLYLQMNSLRAEDTAVYYCARVSPIASGMDYWGQGTLVTVSS VL: EIVLTQSPGTLSLSPGERATLSCRASQSVSSSYLAWYQQKPGQAPRLLIYGASSRATGIPDRFSGSGSGTDFTLTISRLEPEDFAVYYCQHYPYPPSFTFGQGTKVEIK	2.46e+06
